Assay results reported in patent publication US20220119534A1 (DRAGONFLY THERAPEUTICS, published 2022).
One block for each binder: values may come before it.

What was measured:
[1] = molecular target: T1, human CLEC12A expressed on cells (human, UniProt Q5QGZ9 1-265); assay: flow cytometry, PL21 cells
T1 construct: Transduced isogenic cells or endogenous expression on AML cells; also called RMA-hCLEC12A; Ba/F3-hCLEC12A
T1 sequence: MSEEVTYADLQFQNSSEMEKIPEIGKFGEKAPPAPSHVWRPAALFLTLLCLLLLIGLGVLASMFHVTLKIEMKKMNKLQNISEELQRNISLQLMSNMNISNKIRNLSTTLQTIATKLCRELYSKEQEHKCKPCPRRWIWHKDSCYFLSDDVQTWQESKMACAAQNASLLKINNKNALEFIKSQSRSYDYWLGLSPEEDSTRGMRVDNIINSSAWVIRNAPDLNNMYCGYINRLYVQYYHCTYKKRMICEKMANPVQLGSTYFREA
Method: The ability of the eight purified subcloned mAbs to bind to CLEC12A expressing cells was assessed by FACS analysis with human CLEC12A-positive PL21 cancer cell line.

[2] = molecular target: T1, human CLEC12A expressed on cells; assay: flow cytometry (gMFI) on CLEC12A+ PL-21 AML cells
[3] = molecular target: T2, recombinant cynomolgus CLEC12A-His (cynomolgus monkey, UniProt A0A2K5WXQ4 71-271); assay: SPR, purified murine subclone mAb and Cyno CLEC12A-His
T2 construct: also called cCLEC12A-His; cCLEC12A
T2 sequence: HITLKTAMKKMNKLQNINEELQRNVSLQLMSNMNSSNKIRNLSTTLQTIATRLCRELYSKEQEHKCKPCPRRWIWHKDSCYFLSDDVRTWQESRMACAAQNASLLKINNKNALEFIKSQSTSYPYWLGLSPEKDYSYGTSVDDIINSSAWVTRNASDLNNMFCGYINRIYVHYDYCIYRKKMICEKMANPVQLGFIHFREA

[4] = molecular target: T3, recombinant human CLEC12A-His (human, UniProt Q5QGZ9 65-265); assay: SPR screening, fully purified mAb
T3 construct: also called hCLEC12A-His; hCLEC12A
T3 sequence: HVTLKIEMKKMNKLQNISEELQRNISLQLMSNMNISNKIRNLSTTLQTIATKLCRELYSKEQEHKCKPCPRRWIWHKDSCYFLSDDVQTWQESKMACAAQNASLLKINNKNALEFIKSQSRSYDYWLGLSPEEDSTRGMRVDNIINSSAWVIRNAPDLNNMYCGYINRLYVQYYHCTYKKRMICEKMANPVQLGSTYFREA

[5] = molecular target: T3, recombinant human CLEC12A-His; assay: SPR, CLEC12A binding
de-sialylated hCLEC12A = molecular target: T4, de-sialylated hCLEC12A (human, UniProt Q5QGZ9 65-265, terminal sialic acids removed (neuraminidase)); assay: SPR
T4 construct: also called De-sialylated CLEC12A
T4 sequence: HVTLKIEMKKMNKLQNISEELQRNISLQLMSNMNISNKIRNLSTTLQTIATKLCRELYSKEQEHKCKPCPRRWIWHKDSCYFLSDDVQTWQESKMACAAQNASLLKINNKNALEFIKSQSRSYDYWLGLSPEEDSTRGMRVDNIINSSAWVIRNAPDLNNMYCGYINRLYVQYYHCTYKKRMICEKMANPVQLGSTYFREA

[6] = molecular target: T3, recombinant human CLEC12A-His; assay: SPR
de-glycosylated hCLEC12A = molecular target: T5, de-glycosylated hCLEC12A (human, UniProt Q5QGZ9 65-265, N-linked glycans removed (PNGase F)); assay: SPR
T5 construct: also called PNGase-treated hCLEC12A; De-glycosylated CLEC12A
T5 sequence: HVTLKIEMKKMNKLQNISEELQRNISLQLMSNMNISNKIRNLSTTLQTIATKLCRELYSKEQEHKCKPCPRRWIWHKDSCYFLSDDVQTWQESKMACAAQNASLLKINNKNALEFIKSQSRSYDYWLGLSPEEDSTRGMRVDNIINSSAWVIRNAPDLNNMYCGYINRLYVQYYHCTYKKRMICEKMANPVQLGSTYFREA

[7] = molecular target: T3, recombinant human CLEC12A-His; assay: SPR, purified murine mAb
[8] = molecular target: T6, cynomolgus CLEC12A expressed on RMA cells (cynomolgus monkey, UniProt A0A2K5WXQ4 7-271); assay: flow cytometry, RMA-cCLEC12A, hybridoma supernatant
T6 construct: whole, on cells; also called cCLEC12A isogenic cell line
T6 sequence: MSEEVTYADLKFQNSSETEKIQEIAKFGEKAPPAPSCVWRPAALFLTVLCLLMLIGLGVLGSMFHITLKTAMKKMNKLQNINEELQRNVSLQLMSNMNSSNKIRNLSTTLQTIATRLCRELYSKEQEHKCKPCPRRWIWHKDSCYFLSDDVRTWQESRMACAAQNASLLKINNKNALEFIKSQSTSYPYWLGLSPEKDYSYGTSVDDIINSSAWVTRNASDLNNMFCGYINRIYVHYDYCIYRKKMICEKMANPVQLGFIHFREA
Method: Briefly, RMA cells were transducted with a retroviral vector encoding cCLEC12A or hCLEC12A. […] 100,000 RMA, REH or SEM cells were added per well of a 96 well round bottom plate. Cells were spun down and the pellet was gently dissociated by vortexing. 100 μL of Zombie live/dead dye (PBS+1:2000 dye) were added per well and incubated in the dark at room temperature for 20 minutes. Cells were washed with 200 μL of FACS buffer (PBS+2% FBS). 50 μL of hybridoma supernatants were added to the washed cells and the mixtures were incubated for 30 minutes on ice in the dark. Cells were washed twice with FACS buffer and then 50 μL of anti-mouse Fc-PE secondary reagent (1:200 dilution) were added and incubated for 20 minutes on ice in the dark. After the incubation, the cells were washed and then fixed with 50 μL of 4% paraformaldehyde for 15 minutes on ice. The fixed cells were washed with FACS buffer, resuspended in 200 μL FACS buffer, and stored at 4° C. until ready for acquisition. The samples of cells resuspended in FACS buffer were run on BD FACSCelesta equipped with an HTS (high throughput sampler) to determine the binding affinities of the antibodies to isogenic RMA cells expressing CLEC12A and the U937 AML cancer cell line.

[9] = molecular target: T2, recombinant cynomolgus CLEC12A-His; assay: SPR, purified murine subclone mAb and Cyno CLEC12A-His; remark: listed apart in the source
[10] = molecular target: T2, recombinant cynomolgus CLEC12A-His; assay: as above; remark: listed apart in the source
[11] = molecular target: T1, human CLEC12A expressed on cells; assay: flow cytometry (MFI) on CLEC12A+ PL-21 AML cells, about 0.2 to 130 nM, plateau about 250 MFI; the molecule is assigned by panel order and legend paragraph 296
[12] = molecular target: T3, recombinant human CLEC12A-His; assay: SPR; sensorgrams of a CLEC12A concentration series with fit overlays (response up to about 18, time axis 0 to about 900)
[13] = molecular target: T1, human CLEC12A expressed on cells; assay: flow cytometry on CLEC12A+ PL-21 AML cells
recombinant human CD16b = molecular target: T7, recombinant human CD16b (human, UniProt O75015 17-200, limits assumed, biotinylated); assay: SPR
T7 construct: also called FcγRIIIb
T7 sequence (O75015 17-200 limits assumed): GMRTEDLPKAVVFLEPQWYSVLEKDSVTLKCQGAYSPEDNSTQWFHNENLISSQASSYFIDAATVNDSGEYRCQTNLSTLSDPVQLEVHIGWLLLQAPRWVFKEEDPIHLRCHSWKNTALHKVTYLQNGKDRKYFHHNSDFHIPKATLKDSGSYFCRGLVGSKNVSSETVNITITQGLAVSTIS

[14] = molecular target: T8, recombinant human CD16a V158 (human, UniProt P08637 17-208, biotinylated); assay: SPR
T8 construct: also called FcγRIIIa V158; hCD16aV
T8 sequence (P08637 17-208 F176V limits assumed): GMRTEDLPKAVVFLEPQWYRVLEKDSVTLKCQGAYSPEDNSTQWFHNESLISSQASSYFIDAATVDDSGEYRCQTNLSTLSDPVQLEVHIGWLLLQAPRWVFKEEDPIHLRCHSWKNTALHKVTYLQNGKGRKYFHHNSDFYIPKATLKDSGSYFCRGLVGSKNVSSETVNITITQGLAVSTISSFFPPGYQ

[15] = molecular target: T1, human CLEC12A expressed on cells; assay: flow cytometry on PL-21 cells, fold over background
Method: The cells were then incubated with a fluorophore conjugated anti-human IgG secondary antibody and were analyzed by flow cytometry. The mean fluorescence intensity (MFI) values were normalized to secondary antibody only controls to obtain fold over background (FOB) values.
100,000 cells were seeded per well into a 96-well plate for FACS staining. Cells were washed with PBS. Cells were incubated in a 1:2000 dilution of live/dead dye in PBS for 15 minutes, then washed with FACS buffer. TriNKETs or mAbs were diluted into FACS buffer, and 50 μl containing diluted TriNKET or mAb was added to cells. Cells were incubated on ice for 20 minutes. After the incubation, cells were washed with FACS buffer. Anti-human IgG-Fc secondary antibody was diluted into FACS buffer, and 50 μl was added per well for detection of the bound TriNKETs or mAbs. Cells were incubated for 20 minutes on ice, then washed with FACS buffer. 50 μl of fixation buffer was added to each well, and cells were incubated for 10 minutes at room temperature. […] Within the live gate, the mean fluorescence intensity (MFI) of each sample and the secondary-only control was calculated. Fold-over-background (FOB) was calculated as the ratio of test article MFI over secondary-only background MFI. […]

[16] = molecular target: T3, recombinant human CLEC12A-His; assay: SPR, CLEC12A binding; remark: listed apart in the source
[17] = molecular target: T2, recombinant cynomolgus CLEC12A-His; assay: SPR 37C

- EC50 [1]: 180 pM
- Max MFI [1]: 300 MFI
- EC50 [2]: 200 pM
- binding result [3]: no binding
- Kd [4]: 8 pM
- koff [4]: 2.35e-05 s⁻¹
- kon [4]: 3.03e+06 M⁻¹ s⁻¹
- Kd [5]: ≤ 11 pM
- Kd (de-sialylated hCLEC12A): 7 pM
- koff (de-sialylated hCLEC12A): 3.62e-05 s⁻¹
- kon (de-sialylated hCLEC12A): 5.25e+06 M⁻¹ s⁻¹
- Kd [6]: 12 pM
- koff [6]: 4.7e-05 s⁻¹
- kon [6]: 4.05e+06 M⁻¹ s⁻¹
- Kd (de-glycosylated hCLEC12A): 11 pM
- koff (de-glycosylated hCLEC12A): 4.45e-05 s⁻¹
- kon (de-glycosylated hCLEC12A): 4.26e+06 M⁻¹ s⁻¹
- Kd [7]: 10 pM
- koff [7]: 4.44e-05 s⁻¹
- kon [7]: 4.05e+06 M⁻¹ s⁻¹
- binding result [8]: no binding
B1: 16B8.C8 (antibody, V domains shown)
VH: EVQLQESGPGLVQPSQSLSITCTVSGFSLTNYGLHWVRQSPGKGLEWLGVIWSGGKTDYNTPFKSRLSISKDISKNQVFFKMNSLQPNDTAIYFCAKYDYDDSLDYWGQGTSVTVSS
VL: DIQMNQSPSSLSASLGDTIAITCHASQNINFWLSWYQQKPGNIPKLLIYEASNLHTGVPSRFSGSGSGTRFTLTISSLQPEDIATYYCQQSHSYPLTFGQGTKLEIK
notes: Murine mAb; also called 16B08; m16B8.C8

- EC50 [1]: 640 pM
- Max MFI [1]: 186 MFI
- binding result [9]: no binding
- binding result [8]: no binding
B2: 9E4.B7 (antibody, V domains shown)
VH: EVQLQESGAELMKPGASVKISCRTTGYTFSTYWIEWVKQRPGRGPEWIGELFPGNSDTTLNEKFTGKATFTADSSSNTAYMQLSSLTSEDSAVYYCARSGYYGSSLDYWGQGTTLTVSS
VL: GIVMTQSPASLSASVGETVTITCRAGENIHSYLAWYQQKQGKSPQLLVYNAKTLAEGVPSRFSGSGSGTQFSLKINSLQPEDFGSYYCQHHYGTPRTFGGGTKLEIK
notes: Murine mAb; also called 9E04

- EC50 [1]: 560 pM
- Max MFI [1]: 217 MFI
- binding result [10]: no binding
- EC50 [11]: 500 pM
- Kd [7]: 1400 pM
- koff [7]: 0.00157 s⁻¹
- kon [7]: 1.14e+06 M⁻¹ s⁻¹
- binding result [8]: no binding
- Kd [12]: 1100 pM
B3: 9F11.B7 (antibody, V domains shown)
VH: EVQLQESGGGLVQPGGSRKLSCAASGFTFNSFGMHWVRQAPEKGLEWVAFISSGSTSIYYANTVKGRFTISRDNPKNTLFLQMTSLRSEDTAMYYCARDGYPTGGAMDYWGQGTSVTVSS
VL: DIKMTQSPSSMYASLGERVTITCKASQDIYNYLSWFQLKPGKSPRPLIYRANILVSGVPSKFSGSGSGQDYSLTINSLEYEDLGIYYCLQFDAFPFTFGSGTKLEIK
notes: Murine mAb

- EC50 [13]: 450 pM
- fold difference in affinity vs trastuzumab (recombinant human CD16b): 2.3 fold
- fold difference in affinity vs trastuzumab [14]: 3.8 fold
- EC50 (read off the curve) [15]: ~500 pM
- Kd [16]: 800 pM
- binding result [17]: no binding (tested: 100 nM)
B4: AB0089 TriNKET (other)
chain: QLQLQESGPGLVKPSETLSLTCTVSGFSLTNYGLHWIRQPPGKCLEWIGVIWVGGATDYNPSLKSRVTISVDTSKNQFSLKLSSVQAADTAVYYCAKGDYGDTLDYWGQGTLVTVSSGGGGSGGGGSGGGGSGGGGSDIQMTQSPSSLSASVGDRVTITCHASQNINFWLSWYQQKPGKAPKLLIYEASNLHTGVPSRFSGSGSGTDFTLTISSLQPEDFATYYCQQSHSYPLTFGCGTKLEIKGSDKTHTCPPCPAPELLGGPSVFLFPPKPKDTLMISRTPEVTCVVVDVSHEDPEVKFNWYVDGVEVHNAKTKPREEQYNSTYRVVSVLTVLHQDWLNGKEYKCKVSNKALPAPIEKTISKAKGQPREPRVYTLPPCRDELTKNQVSLTCLVKGFYPSDIAVEWESNGQPENNYKTTPPVLVSDGSFTLYSKLTVDKSRWQQGNVFSCSVMHEALHNHYTQKSLSLSPG
heavy: EVQLVESGGGLVKPGGSLRLSCAASGFTFSSYSMNWVRQAPGKGLEWVSSISSSSSYIYYADSVKGRFTISRDNAKNSLYLQMNSLRAEDTAVYYCARGAPIGAAAGWFDPWGQGTLVTVSSASTKGPSVFPLAPSSKSTSGGTAALGCLVKDYFPEPVTVSWNSGALTSGVHTFPAVLQSSGLYSLSSVVTVPSSSLGTQTYICNVNHKPSNTKVDKKVEPKSCDKTHTCPPCPAPELLGGPSVFLFPPKPKDTLMISRTPEVTCVVVDVSHEDPEVKFNWYVDGVEVHNAKTKPREEQYNSTYRVVSVLTVLHQDWLNGKEYKCKVSNKALPAPIEKTISKAKGQPREPQVCTLPPSRDELTENQVSLTCLVKGFYPSDIAVEWESNGQPENNYKTTPPVLDSDGSFFLYSWLTVDKSRWQQGNVFSCSVMHEALHNHYTQKSLSLSPG
light: DIQMTQSPSSVSASVGDRVTITCRASQGISSWLAWYQQKPGKAPKLLIYAASSLQSGVPSRFSGSGSGTDFTLTISSLQPEDFATYYCQQGVSFPRTFGGGTKVEIKRTVAAPSVFIFPPSDEQLKSGTASVVCLLNNFYPREAKVQWKVDNALQSGNSQESVTEQDSKDSTYSLSSTLTLSKADYEKHKVYACEVTHQGLSSPVTKSFNRGEC
